Assay results published in patent US20140314832A1 (SHANGHAI PULMONARY HOSPITAL TONGJI UNIVERSITY SCHOOL OF …, published 2014).

B1: Nb43 (VHH)
VHH: MQAQLAGQLQLVESGGGLVQIGGSLRLSCAASGSDFSIYHMGWYRQAPGKQRELVAAITSGGSTNYADSVKGRFTISSDNAKNTVYLQMNSLKPEDTAVYYCNADGVPEYSDYASGPVYWGQGTQVTVSSAHHSEDPGPRGLAAAGAPVPYPDPLEPRAA
notes: Alpaca VHH clone; screened as phage clone; also called N0; 43; rSPA-Nb
B2: Nb28 (VHH)
VHH: MQAQLAGQLQLVESGGGLVQPGGSLRLSCEASGFTFDDYAIGWFRQAPGKEREEVSCISHNGGTTNYADSVKGRFSISRDNAKNTVYLQMNGLKPEDTANYYCAGARSGLCVFFELQDYDYWGQGTQVTVSSAHHSEDPGPRGLAAAGAPVPYPDPLEPRAA
notes: Alpaca VHH clone; screened as phage clone; also called N0; 28; rSPA-Nb
B3: Nb45 (VHH)
VHH: MQAQLAVQLQLVESGGGLVQAGGSLRLSCVASGSMFNFYGMAWYRQAPGKQRELVASIDSEGRTTNYPDSLKGRFTISRDDAKSTAYLQMNNLIPDDTAVYYCNAFRGRMYDYWGQGTQVTVSSEPKTPKPQGPRGLAAAGAPVPYPDPLEPRAA
notes: Alpaca VHH clone; screened as phage clone; also called N0; 45; rSPA-Nb
B4: Nb27 (VHH)
VHH: MQAQLAVQLQLVESGGGLVQPGGSLRLSCEVSGSRGSIYFSGWYRQAPGKQRELVASITSGGTTNYADSVKGRFTISRDNAKNTVYLQMNSLKPEDTAVYYCNIGRYGLGGSWGQGTQVTVSSEPKTPKPQGPRGLAAAGAPVPYPDPLEPRAA
notes: Alpaca VHH clone; screened as phage clone; also called N0; 27; rSPA-Nb
B5: Nb48 (VHH)
VHH: MQAQLAGQLQLVESGGGLVEVGESLRLSCVALGFTLDGYAIGWFRQAPGKEREKISCISSTGDSTNYDDSVKGRFTISRDTAKSTVFLQMNNLIPEDTAIYYCGADLLARCGRVWYFPPDLNYRGQGTQVTVSSAHHSEDPGPRGLAAAGAPVPYPDPLEPRAA
notes: Alpaca VHH clone; screened as phage clone; also called N0; 48; rSPA-Nb
B6: Nb9 (VHH)
VHH: MQAQLAGQLQLVESGGGLVQPGGSLRLSCTASEFTLDYHSIGWFRQAPGKEREGVSCISYGDGTTFYTDSVKGRFTISRDNAKNTVTLQMNSLKPEDTAVYYCAASPGRLLLFRLCMSEDEYDFWGQGTQVTVSSEPKTPKPQGPRGLAAAGAPVPYPDPLEPRAA
notes: Alpaca VHH clone; screened as phage clone; also called N0; rSPA-Nb
B7: Nb19 (VHH)
VHH: MQAQLAGQLQLVESGGGLVQPGGSLRLSCTASEFTLDYHSIGWFRQAPGKEREGVSCISYGDGTTFYTDSVKGRFTISRDNAKNTVTLQMNSLKPEDTAVYYCAASPGRLLLFRLCMSEDEYDFWGQGTQVTVSSEPKTPKPQGPRGLAAAGAPVPYPDPLEPRAA
notes: Alpaca VHH clone; screened as phage clone; also called N0; 19; rSPA-Nb
B8: Nb47 (VHH)
VHH: MQAQLAGQLQLVESGGGRVQAGGSLTLSCAASGDIFTLASMGWYREDLHKKRELVAQLMSDGTANYGDSVKGRVTISRDDVDTTVHLRMNTLQPSDTGEYFCYIHTSREITWGRGTQVTVSQGESSAPQSSAPQATVSSAHHSEDPGPRGLAAAGAPVPYPDPLEPRAA
notes: Alpaca VHH clone; screened as phage clone; also called N0; 47; rSPA-Nb
B9: Nb34 (VHH)
VHH: MQAQLAVQLQLVESGGGTVQPGGSLNLSCVTSGFTFSRHDMSWVRQAPGKGPEWISGIGTSGTSGRYASSVKGRFTISRDNAKDTLYLQMDSLKPEDTGLYYCTTGGVYSAYVQPRGKGTQVTVSSAHHSEDPGPRGLAAAGAPVPYPDPLEPRAA
notes: Alpaca VHH clone; screened as phage clone; also called N0; 34; rSPA-Nb
B10: Nb36 (VHH)
VHH: MQAQLAVQLQLVESGGGLVQPGGSLRLSCAASGRAFSVYAVGWYRQIPGNQREMVAAISSGGNTKYSDSVKGRFTVSSEPKTPKPQGPRGLAAAGAPVPYPDPLEPRAA
notes: screened as phage clone; also called N0; 36; rSPA-Nb
B11: Nb32 (VHH)
VHH: MQAQLAGQLQLVESGGGLVQPGGSLRLSCTASKFHLDSYAVAWFRQTPGKEREAVSFINTSDDVTYFADSVKGRFTISRDNSKNTVYLQMNVLKPEDTSVYVCAAVRSPGPTGPSMQPMWSVPDLYDYWGQGTQVTVSSAHHSEDPGPRGLAAAGAPVPYPDPLEPRAA
notes: Alpaca VHH clone; screened as phage clone; also called N0; 32; rSPA-Nb
B12: Nb3 (VHH)
VHH: MQAQLAVQLQLVESGGGLVQPGGSLRLSCVVSGVTFNNYGMSWVRQAPGKGLEWISSIYSNGHTYSADSVKGRFTISRDNANNTLYLQMNSLKPEDTANYYCKLVGETHRGQGTQVTVSSEPNTPKPQGPRGLAAAGAPVPYPDPLEPRAAYTVESCLA
notes: as for B6
B13: Nb11 (VHH)
VHH: MQAQLAGQLQLVESGGGLVQPGGSLRLSCVVSGVTFNNYGMTWVRQAPGKGLEWISTIYSNGHTYYADFVKGRFTISRDNAKNTLYLQMISLKPEDTAKYYCRLTGETYRGQGTQVTVSSEPKTRKPQGPRGLAAAGAPVPYPDPLEPRAA
notes: Alpaca VHH clone; screened as phage clone; also called N0; 11; rSPA-Nb
B14: Nb17 (VHH)
VHH: MQAQLAVQLQLVESGGGLVQPGGSLRLSCVVSGVTISNYGMSWVRQAPGKGLEWISTIYSNGHTYSADSVKGRFTISRDNAKNTLYLQMNSLKPEDTAKYYCKLVGETHRGQGTQVTVSSEPKTPKPQGPRGLAAAGAPVPYPDPLEPRAA
notes: Alpaca VHH clone; screened as phage clone, then cloned into PET-30a, expressed in E. coli BL21 (DE3), nickel-purified, 17 kDa, detected with anti-His; also called N0; 17; rSPA-Nb
B15: Nb18 (VHH)
VHH: MQAQLAGQLQLVESGGGLVQPGGSLMLSCVVSGVTISNYGMTWVRQAPGKGLEWISTIYSNGHTYYADSVKGRFTASRDNAKNTLYLQMNSLKPEDTAKYYCKLTGETHRGQGTQVTVSSEPKTPKPQGPRGLAAAGAPVPYPDPLEPRAA
notes: Alpaca VHH clone; screened as phage clone; also called N0; 18; rSPA-Nb
B16: Nb1 (VHH)
VHH: MQAQLAGQLQLVESGGGLVQPGGSLKLSCTASETTFEIYPMAWYRQAPGKQRELVAGINMISSTKYIDSVKGRFTISRDNDKNTMYLQMNSLKPEDTAVYYCNLDTTMVEGVEYWGQGTQVTVSSAHHSEDPGPRGLAAAGAPVPYPDPLEPRAA
notes: Alpaca VHH clone; screened as phage clone (pCANTAB 5E); also called N0; rSPA-Nb
B17: Nb22 (VHH)
VHH: MQAQLAGQLQLVESGGGLVQPGGSLRLSCAASGRAFSVYAVGWYRQPPGKQRELVASITDGGSTNYADSVKGRFTVSRDNARNTAYLDMNSLKVEDTAVYYCNANYGGSVLYNYWGPGTQVTVSTEPKTPKPQGPRGLAAAGAPVPYPDPLEPRAA
notes: Alpaca VHH clone; screened as phage clone; also called N0; 22; rSPA-Nb
B18: Nb41 (VHH)
VHH: MQAQLAGQLQLVESGGGMVQPGGSLRLSCAASGFIFSRYDMGWVRQTPGKGREWVSGINSGGGRTYYADSVKGRFTISRDDDKATLYLSMDGLKPEDTALYHCVRFTVKTPQGYYYLNDFDYWGQGTQVTVSSEPKTPKPQGPRGLAAAGAPVPYPDPLEPRAA
notes: Alpaca VHH clone; screened as phage clone; also called N0; 41; rSPA-Nb

Assays:
[1] = molecular target: T1, rat pulmonary surfactant protein A (rSP-A), recombinant (rat (Rattus norvegicus), UniProt P08427 21-248, limits assumed); experiment: indirect phage ELISA on coated rSP-A, OD 450 nm
Description: (1) Single clonies obtained from the three rounds of selections and grown on 2YTAG plates were inoculated into the 72-well culture plate at 30° C., and cultured with shaking overnight. (2) 400 ul of M13K07 helper phage was put in each well of another 72-well culture plate (labeled P1 Plate) the next day. (3) 40 ul of cultured medium were taken from each well of the Master Plate, which was cultured overnight, and put in each well of the P1 Plate, and incubated at 37° C. with shaking overnight. The culture supernatant was prepared by centrifugation at 1500 g for 20 minutes set aside, and the recombinant antibody was obtained. (4) A 96-well microtiter plate was coated with rSP-A. (5) 160 ul of recombinant antibody was mixed with 40 μL of MPBS, incubated for 20 minutes at room temperature. It was then added to blocked microtiter wells and reacted for 2 hours at 37° C. (6) Washing and adding HRP secondary antibody: HRP-labeled antibody against M13KO7 was diluted 1:4000 in PBS, 200 ul of that was added to each well, and incubated and reacted for 1 hour at 37° C. (7) 200 ul TMB substrate solution was added to each well, incubated at 37° C. for about 45 minutes to develop the image, 100 ul of stop solution was added to each well to stop the development process, and measurements were taken at 450 nm. Preliminary screening was conducted to select positive clones binding to rSP-A ith specificity.

[2] = molecular target: T1, rat pulmonary surfactant protein A …; experiment: ELISA of purified nanobody on rSP-A, OD450
[3] = molecular target: T2, natural SP-A in rat lung tissue (rat, UniProt P08427 21-248); experiment: immunohistochemistry (method of Example 6, rat lung tissue)
T2 construct: The immunohistochemistry is done on rat lung tissue; also called natural SP-A in the lung tissue

[4] = molecular target: T2, natural SP-A in rat lung tissue; experiment: immunohistochemistry on rat lung tissue slices, HIS-IgG-HRP secondary
From the text: Fresh tissues from the lung, heart, liver, spleen, kidney, muscle of rat were fixed and sliced, and diluted primary antibody (Nb6, Nb17 for the experimental groups, SPA polyclonal antibody (SPA-poly-ant) as a positive control group, and alliinase as a negative control group) was dropped on. The secondary antibody was HIS-IgG-HRP. […] The binding effect of Nb17 was similar to that of SPA-poly-ant, while Nb6 had weaker binding effect than Nb 17, as there is differneces in the amino acid sequence at the antigen binding region between these two. All three antibodies had no obvious binding effect with rat heart, liver, spleen, kidney, muscle tissues, nor had the negative control group (FIG. 6).

Row | Binder | affinity value relative to negative control [1] | binding result [3] | also measured
1 | B1 | 3 fold over negative control | – | –
2 | B2 | 3 fold over negative control | – | –
3 | B3 | 3 fold over negative control | – | –
4 | B4 | 3 fold over negative control | – | –
5 | B5 | 3 fold over negative control | binds | OD450 relative to negative control [2]: 5 fold over negative control
6 | B6 | – | binds | –
7 | B7 | – | binds | –
8 | B8 | 3 fold over negative control | – | –
9 | B9 | 3 fold over negative control | – | –
10 | B10 | 3 fold over negative control | – | OD450 relative to negative control [2]: 5 fold over negative control
11 | B11 | 3 fold over negative control | binds | OD450 relative to negative control [2]: 5 fold over negative control
12 | B12 | 3 fold over negative control | – | –
13 | B13 | 3 fold over negative control | binds | OD450 relative to negative control [2]: 5 fold over negative control
14 | B14 | – | – | binding result [4]: binds
15 | B15 | – | binds | –
16 | B16 | 3 fold over negative control | – | –
17 | B17 | 3 fold over negative control | – | –
18 | B18 | 3 fold over negative control | – | –
